Literature values, collected in paper PMC2739727.
pKd: −log10 of the molar value.

What was measured:
[1] = biological target: IL-13Rα2 (Homo sapiens) (UniProt Q14627)
[2] = biological target: IL-13Rα1/IL-4Rα (Homo sapiens) (UniProt P78552)
Chain of UniProt P78552 (P78552 22-343, chain 1 of 2): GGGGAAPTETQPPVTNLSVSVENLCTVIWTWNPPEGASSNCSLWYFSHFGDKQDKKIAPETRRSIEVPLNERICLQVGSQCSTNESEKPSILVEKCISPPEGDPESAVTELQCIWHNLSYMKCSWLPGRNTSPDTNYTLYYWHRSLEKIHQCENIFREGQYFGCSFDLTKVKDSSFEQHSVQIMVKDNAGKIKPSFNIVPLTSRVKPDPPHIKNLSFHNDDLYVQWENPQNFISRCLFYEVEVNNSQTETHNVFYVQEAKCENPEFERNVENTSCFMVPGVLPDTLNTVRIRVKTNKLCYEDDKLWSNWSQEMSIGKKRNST
Chain of UniProt P78552 (P24394 26-232, chain 2 of 2, further chain): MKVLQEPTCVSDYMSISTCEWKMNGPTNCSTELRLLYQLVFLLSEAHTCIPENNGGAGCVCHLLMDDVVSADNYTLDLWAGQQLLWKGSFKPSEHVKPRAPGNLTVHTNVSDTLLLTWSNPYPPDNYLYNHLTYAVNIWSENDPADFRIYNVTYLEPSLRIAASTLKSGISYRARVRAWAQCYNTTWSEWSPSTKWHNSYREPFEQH

Chain of UniProt Q14627 (Q14627 27-343): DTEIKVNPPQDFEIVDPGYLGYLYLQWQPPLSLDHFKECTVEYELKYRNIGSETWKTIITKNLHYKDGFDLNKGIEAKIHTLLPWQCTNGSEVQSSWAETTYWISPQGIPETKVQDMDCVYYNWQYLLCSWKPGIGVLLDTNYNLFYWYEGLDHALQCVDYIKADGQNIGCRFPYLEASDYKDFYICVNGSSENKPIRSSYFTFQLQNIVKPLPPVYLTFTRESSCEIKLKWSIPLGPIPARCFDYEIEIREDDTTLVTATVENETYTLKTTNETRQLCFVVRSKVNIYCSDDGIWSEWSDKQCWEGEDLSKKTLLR

pKd [1]: 9.70 | pKd [2]: 9.70
Substance: IL-13 (from UniProt P35225)
